This is an account of results in IntAct's records for PubMed 12522104.

B1: Peroxisome proliferator-activated receptor gamma coactivator 1-alpha (Homo sapiens), Q9UBK2 (parent)
chain: MAWDMCNQDSESVWSDIECAALVGEDQPLCPDLPELDLSELDVNDLDTDSFLGGLKWCSDQSEIISNQYNNEPSNIFEKIDEENEANLLAVLTETLDSLPVDEDGLPSFDALTDGDVTTDNEASPSSMPDGTPPPQEAEEPSLLKKLLLAPANTQLSYNECSGLSTQNHANHNHRIRTNPAIVKTENSWSNKAKSICQQQKPQRRPCSELLKYLTTNDDPPHTKPTENRNSSRDKCTSKKKSHTQSQSQHLQAKPTTLSLPLTPESPNDPKGSPFENKTIERTLSVELSGTAGLTPPTTPPHKANQDNPFRASPKLKSSCKTVVPPPSKKPRYSESSGTQGNNSTKKGPEQSELYAQLSKSSVLTGGHEERKTKRPSLRLFGDHDYCQSINSKTEILINISQELQDSRQLENKDVSSDWQGQICSSTDSDQCYLRETLEASKQVSPCSTRKQLQDQEIRAELNKHFGHPSQAVFDDEADKTGELRDSDFSNEQFSKLPMFINSGLAMDGLFDDSEDESDKLSYPWDGTQSYSLFNVSPSCSSFNSPCRDSVSPPKSLFSQRPQRMRSRSRSFSRHRSCSRSPYSRSRSRSPGSRSSSRSCYYYESSHYRHRTHRNSPLYVRSRSRSPYSRRPRYDSYEEYQHERLKREEYRREYEKRESERAKQRERQRQKAIEERRVIYVGKIRPDTTRTELRDRFEVFGEIEECTVNLRDDGDSYGFITYRYTCDAFAALENGYTLRRSNETDFELYFCGRKQFFKSNYADLDSNSDDFDPASTKSKYDSLDFDSLLKEAQRSLRR
B2: Peroxisome proliferator-activated receptor gamma coactivator 1-alpha (Homo sapiens), Q9UBK2 (parent)
chain: B1 chain
partner: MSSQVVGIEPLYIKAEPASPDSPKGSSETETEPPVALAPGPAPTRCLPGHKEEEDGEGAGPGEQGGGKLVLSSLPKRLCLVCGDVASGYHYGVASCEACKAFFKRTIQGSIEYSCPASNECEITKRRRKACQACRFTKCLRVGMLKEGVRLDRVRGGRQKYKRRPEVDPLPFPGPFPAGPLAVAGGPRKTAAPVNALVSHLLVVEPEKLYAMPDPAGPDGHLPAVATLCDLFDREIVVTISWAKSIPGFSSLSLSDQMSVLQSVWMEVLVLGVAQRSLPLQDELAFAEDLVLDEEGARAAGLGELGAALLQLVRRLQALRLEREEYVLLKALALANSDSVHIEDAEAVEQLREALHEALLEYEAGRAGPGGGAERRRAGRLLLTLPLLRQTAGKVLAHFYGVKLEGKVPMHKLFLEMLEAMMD

In the assay “rxra_human RXRA, P19793” the parent is B1. The following applies: with rxra_human RXRA.
Variants of B1 are the subject of the assay “esr1_human ESR1, P03372”. The following applies: with esr1_human ESR1, P03372.
Variants of B2 are the subject of assay [1]. Particulars: with err1_human ESRRA.
Assay [2] covers variants of B2. The following applies: with err1_human ESRRA. The source holds these as a separate data set.

Chain of esr1_human ESR1, P03372 (P03372 whole entry): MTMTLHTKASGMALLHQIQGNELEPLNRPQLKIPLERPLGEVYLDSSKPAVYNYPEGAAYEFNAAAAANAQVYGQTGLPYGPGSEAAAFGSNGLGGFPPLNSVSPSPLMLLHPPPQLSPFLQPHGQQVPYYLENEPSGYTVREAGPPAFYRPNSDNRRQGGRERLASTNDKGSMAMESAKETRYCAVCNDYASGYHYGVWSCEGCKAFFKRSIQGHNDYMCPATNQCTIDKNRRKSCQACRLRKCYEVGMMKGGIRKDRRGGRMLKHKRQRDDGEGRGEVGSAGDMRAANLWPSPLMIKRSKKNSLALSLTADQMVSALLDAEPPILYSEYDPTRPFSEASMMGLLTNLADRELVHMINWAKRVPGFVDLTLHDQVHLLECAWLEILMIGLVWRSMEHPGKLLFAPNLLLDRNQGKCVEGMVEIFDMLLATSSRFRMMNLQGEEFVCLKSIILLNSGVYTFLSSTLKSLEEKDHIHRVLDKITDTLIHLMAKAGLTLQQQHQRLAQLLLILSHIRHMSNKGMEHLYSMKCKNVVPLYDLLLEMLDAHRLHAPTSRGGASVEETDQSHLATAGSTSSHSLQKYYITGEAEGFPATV
Chain of rxra_human RXRA, P19793 (P19793 whole entry): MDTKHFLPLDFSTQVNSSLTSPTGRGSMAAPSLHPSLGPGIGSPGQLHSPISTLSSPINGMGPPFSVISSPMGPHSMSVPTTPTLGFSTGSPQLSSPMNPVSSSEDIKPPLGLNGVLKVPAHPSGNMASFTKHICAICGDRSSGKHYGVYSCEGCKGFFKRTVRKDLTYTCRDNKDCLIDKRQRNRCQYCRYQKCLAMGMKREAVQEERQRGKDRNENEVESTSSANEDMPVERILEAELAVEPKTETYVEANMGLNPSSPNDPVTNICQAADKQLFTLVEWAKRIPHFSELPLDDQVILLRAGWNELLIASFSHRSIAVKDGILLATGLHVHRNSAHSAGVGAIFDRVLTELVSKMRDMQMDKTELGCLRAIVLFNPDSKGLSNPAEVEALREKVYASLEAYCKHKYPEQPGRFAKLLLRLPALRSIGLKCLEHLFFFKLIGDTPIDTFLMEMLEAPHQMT

In the case of L210A;L211A, the “effect of a mutation on the interaction” value is “decreasing interaction strength” in the assay with rxra_human RXRA, P19793 and “with no effect” with esr1_human ESR1, P03372.

As for L147A;L148A, the “effect of a mutation on the interaction” value with rxra_human RXRA, P19793 is “disrupting interaction strength”; with esr1_human ESR1, P03372 it was “decreasing interaction strength”.

Turning to L147A;L148A;L210A;L211A, the “effect of a mutation on the interaction” value in the assay with rxra_human RXRA, P19793 was “disrupting interaction strength”; with esr1_human ESR1, P03372 it was “disrupting interaction strength”.

In the case of L147A;L148A;L210A;L211A, the “effect of a mutation on the interaction” value with err1_human ESRRA, P11474 [1] was “disrupting interaction strength”.

For the variant L210A;L211A, the “effect of a mutation on the interaction” value was “decreasing interaction strength” with err1_human ESRRA, P11474 [1] and “with no effect” with err1_human ESRRA, P11474 [2].

Consider L147A;L148A, for which the “effect of a mutation on the interaction” value was “decreasing interaction strength” in the assay with err1_human ESRRA, P11474 [1] and “with no effect” in the assay with err1_human ESRRA, P11474 [2].
